The source of these data is PMC12240541 (Science (New York, N.Y.), 2021).

The target in this assay is recombinant SARS-CoV-2 wildtype Wuhan-Hu-1 S ectodomain trimer (SARS-CoV-2, Wuhan-Hu-1, UniProt P0DTC2). The assay is described as follows: ELISA. The following applies: both partners purified.

B1: S2X303 mAb (antibody, V domains shown)
VH: QITLKESGPTLVKPTQTLTLTCKLSGFSVNTGGVGVGWIRQPPGKALEWLALIYWNDDKLYSPSLKSRLTVTKDTSKNQVVLTMTNMDPVDTATYYCAHVLVWFGEVLPDAFDVWGQGTMVTVSS
VL: SYELTQPPSVSVSPGQTASITCSGDKLGETYASWYQQKPGQSPILVIYQDNKRPSGIPERFSGSNSENTATLTISGTQTMDEADYYCQAWDKTIAGFGGGTKLTV
notes: copies: 2 + 2
With B1, the binding result was “binds”.

B2: S2L20 mAb (antibody, V domains shown)
VH: EVQLVESGGGVVQPGGSLRLSCAASGFTFNSYGMHWVRQAPGKGLEWVAFIRYDGGNKYYADSVKGRFTISRDNSKNTLYLQMKSLRAEDTAVYYCANLKDSRYSGSYYDYWGQGTLVTVS
VL: not shown
notes: copies: 2 + 2
Regarding B2, the binding result is “binds”.
